± gives the uncertainty stated by the source.
B1: Retinoic acid receptor RXR-alpha, residues 132 to 208; numbered along this chain, P19793 (parent)
chain: KHICAICGDRSSGKHYGVYSCEGCKGFFKRTVRKDLTYTCRDNKDCLIDKRQRNRCQYCRYQKCLAMGMKREAVQEE

Variants of: B1
Test: abundance fitness (aPCA) (normalised: wild type 0, dead -1); higher = more abundant; growth selection in yeast, the domain comes from the species named
Conditions: Homo sapiens

Row | Variant | abundance fitness
1 | KHICAICGDRSSGKHYGVYSYEGCKGFFKRTVRKDLTYTCRDNKDCLIDKRQRNRCQYCRYQKCLAMGMKREAVQEE [C21Y] | -0.676 ± 0.066
2 | KHICAICGDRSSGKHYGVYSGEGCKGFFKRTVRKDLTYTCRDNKDCLIDKRQRNRCQYCRYQKCLAMGMKREAVQEE [C21G] | -0.956 ± 0.047
3 | KHICAICGDRSSGKHYGVYSWEGCKGFFKRTVRKDLTYTCRDNKDCLIDKRQRNRCQYCRYQKCLAMGMKREAVQEE [C21W] | -1.03 ± 0.085
4 | KHICAICGDRSSGKHYGVYSDEGCKGFFKRTVRKDLTYTCRDNKDCLIDKRQRNRCQYCRYQKCLAMGMKREAVQEE [C21D] | -0.413 ± 0.039
5 | KHICAICGDRSSGKHYGVYSMEGCKGFFKRTVRKDLTYTCRDNKDCLIDKRQRNRCQYCRYQKCLAMGMKREAVQEE [C21M] | -0.827 ± 0.067
6 | KHICAICGDRSSGKHYGVYSFEGCKGFFKRTVRKDLTYTCRDNKDCLIDKRQRNRCQYCRYQKCLAMGMKREAVQEE [C21F] | -0.962 ± 0.077
7 | KHICAICGDRSSGKHYGVYSHEGCKGFFKRTVRKDLTYTCRDNKDCLIDKRQRNRCQYCRYQKCLAMGMKREAVQEE [C21H] | -0.933 ± 0.079
8 | KHICAICGDRSSGKHYGVYSPEGCKGFFKRTVRKDLTYTCRDNKDCLIDKRQRNRCQYCRYQKCLAMGMKREAVQEE [C21P] | -0.9 ± 0.072
9 | KHICAICGDRSSGKHYGVYSSEGCKGFFKRTVRKDLTYTCRDNKDCLIDKRQRNRCQYCRYQKCLAMGMKREAVQEE [C21S] | -0.98 ± 0.057
10 | KHICAICGDRSSGKHYGVYSTEGCKGFFKRTVRKDLTYTCRDNKDCLIDKRQRNRCQYCRYQKCLAMGMKREAVQEE [C21T] | -1.05 ± 0.092
11 | KHICAICGDRSSGKHYGVYSIEGCKGFFKRTVRKDLTYTCRDNKDCLIDKRQRNRCQYCRYQKCLAMGMKREAVQEE [C21I] | -1.12 ± 0.11
12 | KHICAICGDRSSGKHYGVYSLEGCKGFFKRTVRKDLTYTCRDNKDCLIDKRQRNRCQYCRYQKCLAMGMKREAVQEE [C21L] | -0.986 ± 0.055
13 | KHICAICGDRSSGKHYGVYSAEGCKGFFKRTVRKDLTYTCRDNKDCLIDKRQRNRCQYCRYQKCLAMGMKREAVQEE [C21A] | -1.07 ± 0.072
14 | KHICAICGDRSSGKHYGVYSNEGCKGFFKRTVRKDLTYTCRDNKDCLIDKRQRNRCQYCRYQKCLAMGMKREAVQEE [C21N] | -0.803 ± 0.069
15 | KHICAICGDRSSGKHYGVYSQEGCKGFFKRTVRKDLTYTCRDNKDCLIDKRQRNRCQYCRYQKCLAMGMKREAVQEE [C21Q] | -1.02 ± 0.11
16 | KHICAICGDRSSGKHYGVYSEEGCKGFFKRTVRKDLTYTCRDNKDCLIDKRQRNRCQYCRYQKCLAMGMKREAVQEE [C21E] | -0.845 ± 0.072
17 | KHICAICGDRSSGKHYGVYSCNGCKGFFKRTVRKDLTYTCRDNKDCLIDKRQRNRCQYCRYQKCLAMGMKREAVQEE [E22N] | -0.079 ± 0.066
18 | KHICAICGDRSSGKHYGVYSCAGCKGFFKRTVRKDLTYTCRDNKDCLIDKRQRNRCQYCRYQKCLAMGMKREAVQEE [E22A] | -0.048 ± 0.033

Row | Variant | abundance fitness
19 | KHICAICGDRSSGKHYGVYSCRGCKGFFKRTVRKDLTYTCRDNKDCLIDKRQRNRCQYCRYQKCLAMGMKREAVQEE [E22R] | -0.002 ± 0.031
20 | KHICAICGDRSSGKHYGVYSCIGCKGFFKRTVRKDLTYTCRDNKDCLIDKRQRNRCQYCRYQKCLAMGMKREAVQEE [E22I] | -0.011 ± 0.051
21 | KHICAICGDRSSGKHYGVYSCKGCKGFFKRTVRKDLTYTCRDNKDCLIDKRQRNRCQYCRYQKCLAMGMKREAVQEE [E22K] | 0.015 ± 0.045
22 | KHICAICGDRSSGKHYGVYSCYGCKGFFKRTVRKDLTYTCRDNKDCLIDKRQRNRCQYCRYQKCLAMGMKREAVQEE [E22Y] | -0.135 ± 0.057
23 | KHICAICGDRSSGKHYGVYSCSGCKGFFKRTVRKDLTYTCRDNKDCLIDKRQRNRCQYCRYQKCLAMGMKREAVQEE [E22S] | -0.063 ± 0.035
24 | KHICAICGDRSSGKHYGVYSCMGCKGFFKRTVRKDLTYTCRDNKDCLIDKRQRNRCQYCRYQKCLAMGMKREAVQEE [E22M] | -0.136 ± 0.05
25 | KHICAICGDRSSGKHYGVYSCCGCKGFFKRTVRKDLTYTCRDNKDCLIDKRQRNRCQYCRYQKCLAMGMKREAVQEE [E22C] | -0.043 ± 0.053
26 | KHICAICGDRSSGKHYGVYSCQGCKGFFKRTVRKDLTYTCRDNKDCLIDKRQRNRCQYCRYQKCLAMGMKREAVQEE [E22Q] | -0.094 ± 0.043
27 | KHICAICGDRSSGKHYGVYSCVGCKGFFKRTVRKDLTYTCRDNKDCLIDKRQRNRCQYCRYQKCLAMGMKREAVQEE [E22V] | -0.053 ± 0.033
28 | KHICAICGDRSSGKHYGVYSCFGCKGFFKRTVRKDLTYTCRDNKDCLIDKRQRNRCQYCRYQKCLAMGMKREAVQEE [E22F] | -0.097 ± 0.064
29 | KHICAICGDRSSGKHYGVYSCHGCKGFFKRTVRKDLTYTCRDNKDCLIDKRQRNRCQYCRYQKCLAMGMKREAVQEE [E22H] | -0.104 ± 0.06
30 | KHICAICGDRSSGKHYGVYSCDGCKGFFKRTVRKDLTYTCRDNKDCLIDKRQRNRCQYCRYQKCLAMGMKREAVQEE [E22D] | -0.062 ± 0.051
31 | KHICAICGDRSSGKHYGVYSCGGCKGFFKRTVRKDLTYTCRDNKDCLIDKRQRNRCQYCRYQKCLAMGMKREAVQEE [E22G] | 0.031 ± 0.028
32 | KHICAICGDRSSGKHYGVYSCWGCKGFFKRTVRKDLTYTCRDNKDCLIDKRQRNRCQYCRYQKCLAMGMKREAVQEE [E22W] | -0.007 ± 0.035
33 | KHICAICGDRSSGKHYGVYSCPGCKGFFKRTVRKDLTYTCRDNKDCLIDKRQRNRCQYCRYQKCLAMGMKREAVQEE [E22P] | -0.037 ± 0.048
34 | KHICAICGDRSSGKHYGVYYCEGCKGFFKRTVRKDLTYTCRDNKDCLIDKRQRNRCQYCRYQKCLAMGMKREAVQEE [S20Y] | -0.025 ± 0.03
35 | KHICAICGDRSSGKHYGVYACEGCKGFFKRTVRKDLTYTCRDNKDCLIDKRQRNRCQYCRYQKCLAMGMKREAVQEE [S20A] | 0.047 ± 0.025
